For this assay, the target named is HLA-A*0201 molecules on T2 cells (MHC class I/β2-microglobulin complex) (human (endogenous in T2) | ). Nature of the assay: FACS; competition with F1-peptide on T2 cells. (In flow cytometry, cells or beads pass a laser one at a time.)

As for SLSYTNPAV [P7:SLSYTNPAV, MUC1 cytoplasmic tail peptide], the IC50 (commonly the point on the concentration scale where inhibition reaches its midpoint) amounted to 0.419 µg/mL.

These data come from article PMC5039417 (2016).
